Measurements: IntAct's records for PubMed 22491013

B1: Low-density lipoprotein receptor-related protein 6 (Homo sapiens), O75581 (parent)
chain: MGAVLRSLLACSFCVLLRAAPLLLYANRRDLRLVDATNGKENATIVVGGLEDAAAVDFVFSHGLIYWSDVSEEAIKRTEFNKTESVQNVVVSGLLSPDGLACDWLGEKLYWTDSETNRIEVSNLDGSLRKVLFWQELDQPRAIALDPSSGFMYWTDWGEVPKIERAGMDGSSRFIIINSEIYWPNGLTLDYEEQKLYWADAKLNFIHKSNLDGTNRQAVVKGSLPHPFALTLFEDILYWTDWSTHSILACNKYTGEGLREIHSDIFSPMDIHAFSQQRQPNATNPCGIDNGGCSHLCLMSPVKPFYQCACPTGVKLLENGKTCKDGATELLLLARRTDLRRISLDTPDFTDIVLQLEDIRHAIAIDYDPVEGYIYWTDDEVRAIRRSFIDGSGSQFVVTAQIAHPDGIAVDWVARNLYWTDTGTDRIEVTRLNGTMRKILISEDLEEPRAIVLDPMVGYMYWTDWGEIPKIERAALDGSDRVVLVNTSLGWPNGLALDYDEGKIYWGDAKTDKIEVMNTDGTGRRVLVEDKIPHIFGFTLLGDYVYWTDWQRRSIERVHKRSAEREVIIDQLPDLMGLKATNVHRVIGSNPCAEENGGCSHLCLYRPQGLRCACPIGFELISDMKTCIVPEAFLLFSRRADIRRISLETNNNNVAIPLTGVKEASALDFDVTDNRIYWTDISLKTISRAFMNGSALEHVVEFGLDYPEGMAVDWLGKNLYWADTGTNRIEVSKLDGQHRQVLVWKDLDSPRALALDPAEGFMYWTEWGGKPKIDRAAMDGSERTTLVPNVGRANGLTIDYAKRRLYWTDLDTNLIESSNMLGLNREVIADDLPHPFGLTQYQDYIYWTDWSRRSIERANKTSGQNRTIIQGHLDYVMDILVFHSSRQSGWNECASSNGHCSHLCLAVPVGGFVCGCPAHYSLNADNRTCSAPTTFLLFSQKSAINRMVIDEQQSPDIILPIHSLRNVRAIDYDPLDKQLYWIDSRQNMIRKAQEDGSQGFTVVVSSVPSQNLEIQPYDLSIDIYSRYIYWTCEATNVINVTRLDGRSVGVVLKGEQDRPRAVVVNPEKGYMYFTNLQERSPKIERAALDGTEREVLFFSGLSKPIALALDSRLGKLFWADSDLRRIESSDLSGANRIVLEDSNILQPVGLTVFENWLYWIDKQQQMIEKIDMTGREGRTKVQARIAQLSDIHAVKELNLQEYRQHPCAQDNGGCSHICLVKGDGTTRCSCPMHLVLLQDELSCGEPPTCSPQQFTCFTGEIDCIPVAWRCDGFTECEDHSDELNCPVCSESQFQCASGQCIDGALRCNGDANCQDKSDEKNCEVLCLIDQFRCANGQCIGKHKKCDHNVDCSDKSDELDCYPTEEPAPQATNTVGSVIGVIVTIFVSGTVYFICQRMLCPRMKGDGETMTNDYVVHGPASVPLGYVPHPSSLSGSLPGMSRGKSMISSLSIMGGSSGPPYDRAHVTGASSSSSSSTKGTYFPAILNPPPSPATERSHYTMEFGYSSNSPSTHRSYSYRPYSYRHFAPPTTPCSTDVCDSDYAPSRRMTSVATAKGYTSDLNYDSEPVPPPPTPRSQYLSAEENYESCPPSPYTERSYSHHLYPPPPSPCTDSS
partner: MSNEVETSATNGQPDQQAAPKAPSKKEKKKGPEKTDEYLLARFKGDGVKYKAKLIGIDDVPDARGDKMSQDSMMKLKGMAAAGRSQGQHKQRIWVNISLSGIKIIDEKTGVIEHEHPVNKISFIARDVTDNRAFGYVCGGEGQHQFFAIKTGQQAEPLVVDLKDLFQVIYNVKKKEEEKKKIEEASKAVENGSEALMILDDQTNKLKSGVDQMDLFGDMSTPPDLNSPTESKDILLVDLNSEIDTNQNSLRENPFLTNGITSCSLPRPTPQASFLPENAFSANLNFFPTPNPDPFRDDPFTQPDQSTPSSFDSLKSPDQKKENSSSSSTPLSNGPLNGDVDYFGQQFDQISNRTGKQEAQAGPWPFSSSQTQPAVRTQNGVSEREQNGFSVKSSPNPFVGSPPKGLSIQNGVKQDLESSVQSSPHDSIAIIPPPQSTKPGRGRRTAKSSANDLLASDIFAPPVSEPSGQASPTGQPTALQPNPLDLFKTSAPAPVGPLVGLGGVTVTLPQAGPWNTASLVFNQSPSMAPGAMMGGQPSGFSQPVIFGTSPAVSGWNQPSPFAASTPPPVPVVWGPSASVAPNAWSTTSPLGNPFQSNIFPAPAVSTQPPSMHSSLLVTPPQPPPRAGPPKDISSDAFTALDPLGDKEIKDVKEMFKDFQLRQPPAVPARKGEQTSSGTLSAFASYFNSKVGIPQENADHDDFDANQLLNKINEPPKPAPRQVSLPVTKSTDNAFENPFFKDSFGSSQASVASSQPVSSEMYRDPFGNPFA

Variants of: B1
Details: with dab2_human DAB2, P98082

effect of a mutation on the interaction | Variant
decreasing interaction | S1586A

Variants of: B1
Details: with dab2_human DAB2, P98082
Remark: another data set of the same source

effect of a mutation on the interaction | Variant
decreasing interaction | Y1577A

Variants of: B1
Details: with dab2_human DAB2, P98082
Remark: another data set of the same source

effect of a mutation on the interaction | Variant
decreasing interaction | S1607A

Variants of: B1
Details: with dab2_human DAB2, P98082
Remark: another data set of the same source

effect of a mutation on the interaction | Variant
disrupting interaction | S1579A

Variants of: B1
Details: with dab2_human DAB2, P98082
Remark: another data set of the same source

effect of a mutation on the interaction | Variant
decreasing interaction | T1610A

Variants of: B1
Details: with dab2_human DAB2, P98082
Remark: another data set of the same source

effect of a mutation on the interaction | Variant
increasing interaction | S1598A

Variants of: B1
Details: with dab2_human DAB2, P98082
Remark: another data set of the same source

effect of a mutation on the interaction | Variant
decreasing interaction | Y1592A

Variants of: B1
Details: with dab2_human DAB2, P98082
Remark: another data set of the same source

effect of a mutation on the interaction | Variant
increasing interaction | S1613A

Variants of: B1
Details: with dab2_human DAB2, P98082
Remark: another data set of the same source

effect of a mutation on the interaction | Variant
decreasing interaction | T1572A

Variants of: B1
Details: with dab2_human DAB2, P98082
Remark: another data set of the same source

effect of a mutation on the interaction | Variant
decreasing interaction | S1596A

Variants of: B1
Details: with dab2_human DAB2, P98082
Remark: another data set of the same source

effect of a mutation on the interaction | Variant
decreasing interaction | T1593A

Variants of: B1
Details: with dab2_human DAB2, P98082
Remark: another data set of the same source

effect of a mutation on the interaction | Variant
decreasing interaction | Y1584A

Variants of: B1
Details: with dab2_human DAB2, P98082
Remark: another data set of the same source

effect of a mutation on the interaction | Variant
decreasing interaction | S1590A

Variants of: B1
Details: with dab2_human DAB2, P98082
Remark: another data set of the same source

effect of a mutation on the interaction | Variant
decreasing interaction | S1575A
